Where “and” joins values, the source holds several entries; their conditions need not be identical. Identical values can stand only once.
Assays:
[1] = biological target: native, endogenously expressed feline CD134 on MYA-1 T cells (feline (endogenous in MYA-1)); assay: flow cytometry on cells
[2] = biological target: feline CD134 (OX40) expressed on MCC cells (feline); assay: flow cytometry on cells
[3] = biological target: Fc-TNC-fCD134L (chicken | feline) (UniProt P10039); assay: non-reducing SDS-PAGE with immunoblot
[4] = biological target: human CD134 (OX40) expressed on MCC cells (human) (UniProt P43489); assay: flow cytometry on cells
[5] = biological target: the molecule itself; assay: non-reducing SDS-PAGE with immunoblot

Sequence of human CD134 (OX40) expressed on MCC cells (human) (P43489 29-277): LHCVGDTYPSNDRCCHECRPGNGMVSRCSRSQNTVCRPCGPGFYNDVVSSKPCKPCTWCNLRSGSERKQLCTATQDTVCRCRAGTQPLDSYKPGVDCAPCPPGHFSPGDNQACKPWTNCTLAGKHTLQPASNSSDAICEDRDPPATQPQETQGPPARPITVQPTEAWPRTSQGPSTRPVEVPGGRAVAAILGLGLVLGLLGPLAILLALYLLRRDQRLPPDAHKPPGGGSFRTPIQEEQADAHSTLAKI

“FLAG-TNC-fCD134L (from UniProt P10039 110-139) (ligand)” was tested, and the mean fluorescence intensity (MFI) [1] was 3, the percent of cells positive [1] was 44.9% and the mean fluorescence intensity (MFI) [2] was 5. For the same molecule, the percent of cells positive [2] was 66.2%.

Molecule “FLAG-mCD134L (FLAG-tagged murine CD134L) (from UniProt P43488 51-198) (ligand)” has a mean fluorescence intensity (MFI) [1] of 12, a percent of cells positive [1] of 86.5% and a mean fluorescence intensity (MFI) [2] of 309. It also gave a percent of cells positive [2] of 99.7%.

Work on “Fc-TNC-fCD134L (from UniProt P10039 110-139) (Fc fusion)” yielded a stoichiometry N [3] of 6, a mean fluorescence intensity (MFI) [1] of 14 and a percent of cells positive [1] of 82.4%. For the same molecule, the mean fluorescence intensity (MFI) [4] was 9.9, the percent of cells positive [4] was 45.5% and the mean fluorescence intensity (MFI) [2] was 221. It also gave a percent of cells positive [2] of 99.8%.

Molecule “Fc-TNC-mCD134L (from UniProt P10039 110-139; P43488 51-198) (Fc fusion)” has a mean fluorescence intensity (MFI) [1] of 7, a percent of cells positive [1] of 78.2% and a mean fluorescence intensity (MFI) [2] of 300. The percent of cells positive [2] was 99.8%.

B1: Fc-TNC-hCD134L (Fc fusion, chicken | human)
chain: RSPQPQPKPQPKPEPEGSLHACGCAAAPDIKDLLSRLEELEGLVSSLREQGTGGGSGGRGLQVSHRYPRIQSIKVQFTEYKKEKGFILTSQKEDEIMKVQNNSVIINCDGFYLISLKGYFSQEVNISLHYQKDEEPLFQLKKVRSVNSLMVASLTYKDKVYLNVTTDNTSLDDFHVNGGELILIHQNPGEFCVL
With B1 the “stoichiometry N” value [5] was 2 and 6.

B2: Fc-TNC-mCD134L (Fc fusion, chicken | mouse)
chain: RSPQPQPKPQPKPEPEGSLHACGCAAAPDIKDLLSRLEELEGLVSSLREQGTGGGSGGRGLQSSSPAKDPPIQRLRGAVTRCEDGQLFISSYKNEYQTMEVQNNSVVIKCDGLYIIYLKGSFFQEVKIDLHFREDHNPISIPMLNDGRRIVFTVVASLAFKDKVYLTVNAPDTLCEHLQINDGELIVVQLTPGYCAPEGSYHSTVNQVPL
In the case of B2, the “stoichiometry N” value [5] is reported as 6.

— article PMC2676423 (Molecular immunology, 2009)
